The values that follow come from patent WO2007014744A2 (dated 2007).

Data set [1] has as its target T1, fibroblast activation protein (FAP) (UniProt Q12884 1-760, limits assumed).
T1 construct: whole, on cells; also called FAP antigen; FAP on HT1080FAP cells
T1 sequence (looked up): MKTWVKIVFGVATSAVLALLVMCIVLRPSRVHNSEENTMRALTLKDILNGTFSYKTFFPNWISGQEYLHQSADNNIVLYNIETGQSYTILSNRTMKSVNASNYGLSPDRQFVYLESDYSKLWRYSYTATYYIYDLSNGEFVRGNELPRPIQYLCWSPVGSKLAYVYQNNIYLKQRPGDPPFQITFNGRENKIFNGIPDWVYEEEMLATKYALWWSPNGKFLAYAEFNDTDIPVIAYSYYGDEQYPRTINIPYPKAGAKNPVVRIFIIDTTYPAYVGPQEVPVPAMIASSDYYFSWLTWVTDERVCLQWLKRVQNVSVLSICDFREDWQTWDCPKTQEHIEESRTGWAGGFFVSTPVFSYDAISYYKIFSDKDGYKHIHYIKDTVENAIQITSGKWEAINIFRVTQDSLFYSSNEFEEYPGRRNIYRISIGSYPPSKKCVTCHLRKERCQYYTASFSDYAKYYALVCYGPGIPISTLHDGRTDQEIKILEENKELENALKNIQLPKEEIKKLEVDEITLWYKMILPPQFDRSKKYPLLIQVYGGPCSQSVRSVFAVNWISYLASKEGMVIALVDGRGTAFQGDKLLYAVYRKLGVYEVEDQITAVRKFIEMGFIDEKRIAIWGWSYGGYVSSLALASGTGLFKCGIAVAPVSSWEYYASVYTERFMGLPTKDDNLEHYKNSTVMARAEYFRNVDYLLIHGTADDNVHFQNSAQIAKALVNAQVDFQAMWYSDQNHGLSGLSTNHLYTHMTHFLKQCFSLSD
Description: flow cytometry on HT1080FAP against HT1080 cells, 5 ug/ml fusion protein, anti-Flag M2 detection.

Data set [2] concerns the molecule itself. The data set can be described thus: BS3 chemical crosslinking, gel filtration and native PAGE; multimers up to hexamers, native mass about 500 kDa. On the technique in general: SEC sorts molecules by how far they enter the pores of the column.

B1: CD95-TNC-PL-SC40-CD95L prodrug (other)
chain: LEVARLSSKSVNAQVTDINSKGLELRKTVTTVETQNLEGLHHDGQFCHKPCPPGERKARDCTVNGDEPDCVPCQEGKEYTDKAHFSSKCRRCRLCDEGHGLEVEINCTRTQNTKCRCKPNFFCNSTVCEHCDPCTKCEHGIIKECTLTSNTKCKEEGSRSNPRDIACGCAAAPDIKDLLSRLEELEGLVSSLREQGTGGGSGRPPRDHPVGLLARGGGHPVGLLARGGGHPVGLLARTGLEQVQLVQSGGGMVEPGGSLRLSCAASGFTFSNAWMSWVRQAPGKGLEWVGRIKSKAGGGTAEYAAPVKGRFTISRDDSQNTLYLQMNSLKTDDTAVYYCTTHVYGAPRNWGQGSLVTVSSASTKGPKLEEGEFSEARVQSVLTQPPSVSAAPGQKVTISCSGSSSNIGNNYVSWYVQLPGTAPKLLIYDNNKRFSGVPDRFSGSKSGTSATLGITGLQTGDEADYYCGAWDGSLREAVFGGGTKVTVLGAAAVDDYKDDDDKEFTREKKELRKVAHLTGKSNSRSMPLEWEDTYGIVLLSGVKYKKGGLVINETGLYFVYSKVYFRGQSCNNLPLSHKVYMRNSKYPQDLVMMEGKMMSYCTTGQMWARSSYLGAVFNLTSADHLYVNVSELSLVNFEESQTFFGLYKL
notes: Made in HEK293 cells and purified on anti-Flag M2 agarose; Forms covalently associated trimers through the tenascin domain; Crosslinking, gel filtration and native PAGE (about 500 kDa) point to hexamers, i.e. dimers of trimers; also called SC40-CD95L-PD; CD95-TNC-PL-SC40-F-CD95L
Turning to B1, the binding result in data set [1] and in data set [2] was “binds” throughout.
